What was measured:
Assay in all cases: BLI Octet, IgG captured on AHC, CD33 analyte;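 note: CD33 variants and wild type run as analyte at 5, 50 and 500 nM, 700 s association then 1200 s dissociation, buffer-only reference subtracted, global 1:1 fit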
[1] = target: human CD33 extracellular region W22E (human, UniProt P20138 18-259)
Protocol: (§1) Human CD33 wt and variants, were used as analyte at 3 different concentrations (500, 50 and 5 nM). Association of the analyte to the antibodies was monitored for 700 s and dissociation of the analyte from the antibodies was monitored for 1200 s. Reference subtraction was performed against buffer only wells. AHC tips were regenerated using 10 mM Glycine-HCl pH 1.7. Data were analyzed with Octet Data Analysis software HT 12.0. Data were fitted to a 1:1 binding model. Kinetic rates ka and kd and response signal were globally fitted.

[2] = target: human CD33 extracellular region P48F (human, UniProt P20138 18-259)
Protocol: as §1

[3] = target: human CD33 extracellular region W22T (human, UniProt P20138 18-259)
Protocol: as §1

[4] = target: human CD33 extracellular region F21I (human, UniProt P20138 22-259)
Protocol: as §1

[5] = target: human CD33 extracellular region Y50R (human, UniProt P20138 18-259)
Protocol: as §1

[6] = target: human CD33 extracellular region Y50D (human, UniProt P20138 18-259)
Protocol: as §1

[7] = target: human CD33 extracellular region N20S (human, UniProt P20138 21-259)
Protocol: as §1

[8] = target: human CD33 extracellular region Y50E (human, UniProt P20138 18-259)
Protocol: as §1

[9] = target: human CD33 extracellular region W22D (human, UniProt P20138 18-259)
Protocol: as §1

[10] = target: human CD33 extracellular region Q24R (human, UniProt P20138 18-259)
Protocol: as §1

[11] = target: human CD33 extracellular region W22H (human, UniProt P20138 18-259)
Protocol: as §1

[12] = target: human CD33 extracellular region F21S (human, UniProt P20138 22-259)
Protocol: as §1

[13] = target: human CD33 extracellular region F44P (human, UniProt P20138 18-259)
Protocol: as §1

[14] = target: human CD33 extracellular region F21S_W22R (human, UniProt P20138 23-259)
Protocol: as §1

[15] = target: human CD33 extracellular region N20E (human, UniProt P20138 21-259)
Protocol: as §1

[16] = target: human CD33 extracellular region Y50H_Y49H (human, UniProt P20138 18-259)
Protocol: as §1

[17] = target: human CD33 extracellular region Y50L (human, UniProt P20138 18-259)
Protocol: as §1

[18] = target: human CD33 extracellular region F21M (human, UniProt P20138 22-259)
human CD33 extracellular region F21M, sequence (P20138 other isoform, or with tags, fused parts or gaps F21M F21M): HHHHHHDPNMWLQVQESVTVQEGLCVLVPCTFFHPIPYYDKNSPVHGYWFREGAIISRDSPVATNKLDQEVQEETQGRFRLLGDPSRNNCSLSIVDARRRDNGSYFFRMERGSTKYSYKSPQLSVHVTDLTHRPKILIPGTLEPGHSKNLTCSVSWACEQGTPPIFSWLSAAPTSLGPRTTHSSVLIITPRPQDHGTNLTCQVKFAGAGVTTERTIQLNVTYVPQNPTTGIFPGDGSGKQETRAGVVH
Protocol: as §1

human CD33 extracellular region W22H, sequence (P20138 other isoform, or with tags, fused parts or gaps W22H W22H): as the sequence (P20138 other isoform, or with tags, fused parts or gaps F21M F21M) above, with M10F, W11H counted along it
human CD33 extracellular region F21I, sequence (P20138 other isoform, or with tags, fused parts or gaps F21I F21I): as the sequence (P20138 other isoform, or with tags, fused parts or gaps F21M F21M) above, with M10I counted along it
human CD33 extracellular region N20E, sequence (P20138 other isoform, or with tags, fused parts or gaps N20E N20E): as the sequence (P20138 other isoform, or with tags, fused parts or gaps F21M F21M) above, with N9E, M10F counted along it
human CD33 extracellular region W22D, sequence (P20138 other isoform, or with tags, fused parts or gaps W22D W22D): as the sequence (P20138 other isoform, or with tags, fused parts or gaps F21M F21M) above, with M10F, W11D counted along it
human CD33 extracellular region W22T, sequence (P20138 other isoform, or with tags, fused parts or gaps W22T W22T): as the sequence (P20138 other isoform, or with tags, fused parts or gaps F21M F21M) above, with M10F, W11T counted along it
human CD33 extracellular region Y50D, sequence (P20138 other isoform, or with tags, fused parts or gaps Y50D Y50D): as the sequence (P20138 other isoform, or with tags, fused parts or gaps F21M F21M) above, with M10F, Y39D counted along it
human CD33 extracellular region Y50R, sequence (P20138 other isoform, or with tags, fused parts or gaps Y50R Y50R): as the sequence (P20138 other isoform, or with tags, fused parts or gaps F21M F21M) above, with M10F, Y39R counted along it
human CD33 extracellular region N20S, sequence (P20138 other isoform, or with tags, fused parts or gaps N20S N20S): as the sequence (P20138 other isoform, or with tags, fused parts or gaps F21M F21M) above, with N9S, M10F counted along it
human CD33 extracellular region Y50E, sequence (P20138 other isoform, or with tags, fused parts or gaps Y50E Y50E): as the sequence (P20138 other isoform, or with tags, fused parts or gaps F21M F21M) above, with M10F, Y39E counted along it
human CD33 extracellular region Q24R, sequence (P20138 other isoform, or with tags, fused parts or gaps Q24R Q24R): as the sequence (P20138 other isoform, or with tags, fused parts or gaps F21M F21M) above, with M10F, Q13R counted along it
human CD33 extracellular region F21S_W22R, sequence (P20138 other isoform, or with tags, fused parts or gaps F21S W22R F21S W22R): as the sequence (P20138 other isoform, or with tags, fused parts or gaps F21M F21M) above, with M10S, W11R counted along it
human CD33 extracellular region W22E, sequence (P20138 other isoform, or with tags, fused parts or gaps W22E W22E): as the sequence (P20138 other isoform, or with tags, fused parts or gaps F21M F21M) above, with M10F, W11E counted along it
human CD33 extracellular region Y50H_Y49H, sequence (P20138 other isoform, or with tags, fused parts or gaps Y50H Y49H Y50H Y49H): as the sequence (P20138 other isoform, or with tags, fused parts or gaps F21M F21M) above, with M10F, Y38H, Y39H counted along it
human CD33 extracellular region Y50L, sequence (P20138 other isoform, or with tags, fused parts or gaps Y50L Y50L): as the sequence (P20138 other isoform, or with tags, fused parts or gaps F21M F21M) above, with M10F, Y39L counted along it
human CD33 extracellular region F21S, sequence (P20138 other isoform, or with tags, fused parts or gaps F21S F21S): as the sequence (P20138 other isoform, or with tags, fused parts or gaps F21M F21M) above, with M10S counted along it
human CD33 extracellular region P48F, sequence (P20138 other isoform, or with tags, fused parts or gaps P48F P48F): as the sequence (P20138 other isoform, or with tags, fused parts or gaps F21M F21M) above, with M10F, P37F counted along it
human CD33 extracellular region F44P, sequence (P20138 other isoform, or with tags, fused parts or gaps F44P F44P): as the sequence (P20138 other isoform, or with tags, fused parts or gaps F21M F21M) above, with M10F, F33P counted along it

Row | Binder | % WT binding [1] [%] | % WT binding [2] [%] | % WT binding [3] [%] | % WT binding [4] [%] | % WT binding [5] [%] | % WT binding [6] [%] | % WT binding [7] [%] | % WT binding [8] [%] | % WT binding [9] [%] | % WT binding [10] [%] | % WT binding [11] [%] | % WT binding [12] [%] | % WT binding [13] [%] | % WT binding [14] [%] | % WT binding [15] [%] | % WT binding [16] [%] | % WT binding [17] [%] | % WT binding [18] [%]
1 | Refmab #1 (antibody, human IgG1, V domains shown, also called hP67.6; Absolute Antibody Cat. No. Ab00283-10.0) VH: EVQLVQSGAEVKKPGSSVKVSCKASGYTITDSNIHWVRQAPGQSLEWIGYIYPYNGGTDYNQKFKNRATLTVDNPTNTAYMELSSLRSEDTAFYYCVNGNPWLAYWGQGTLVTVSS VL: DIQLTQSPSTLSASVGDRVTITCRASESLDNYGIRFLTWFQQKPGKAPKLLMYAASNQGSGVPSRFSGSGSGTEFTLTISSLQPDDFATYYCQQTKEVPWSFGQGTKVEVK | 26.4 | 76.2 | 15 | 0 | 73.3 | 71.5 | 37.8 | 101 | 0 | 67.9 | 106 | 0 | 0 | 0 | 3.46 | 76.4 | 76.1 | 0
2 | Refmab #3 (antibody, human IgG1, V domains shown) VH: QVQLVQSGAEVKKPGSSVKVSCKASGYTFTDYNMHWVRQAPGQGLEWIGYIYPYNGGTGYNQKFKSKATITADESTNTAYMELSSLRSEDTAVYYCARGRPAMDYWGQGTLVTVSS VL: DIQMTQSPSSLSASVGDRVTITCRASESVDNYGISFMNWFQQKPGKAPKLLIYAASNQGSGVPSRFSGSGSGTDFTLTISSLQPDDFATYYCQQSKEVPWTFGQGTKVEIK | 0 | 74.3 | 3.39 | 0 | 70.5 | 71 | 34.4 | 120 | 0 | 88.4 | 55 | 0 | 0 | 0 | 6.04 | 84.4 | 74.4 | 0
3 | Refmab #4 (antibody, human IgG1, V domains shown) VH: QVQLVQSGAEVKKPGESVKVSCKASGYTFTNYGMNWVKQAPGQGLEWMGWINTYTGEPTYADKFQGRVTMTTDTSTSTAYMEIRNLGGDDTAVYYCARWSWSDGYYVYFDYWGQGTSVTVSS VL: DIVMTQSPDSLTVSLGERTTINCKSSQSVLDSSTNKNSLAWYQQKPGQPPKLLLSWASTRESGIPDRFSGSGSGTDFTLTIDSPQPEDSATYYCQQSAHFPITFGQGTRLEIK | 82.8 | 9.11 | 87.9 | 84.2 | 0 | 0 | 84.1 | 16 | 104 | 102 | 112 | 78.3 | 87.4 | 110 | 100 | 0 | 25.3 | 80

From patent US20260242735A1 (UNIVERSIT T BASEL, published 2026)
